From US20230364262A1, “VIA CYCLOADDITION BILATERALLY FUNCTIONALIZED ANTIBODIES” (SYNAFFIX B.V., priority 2020, published 2023)

Legend:
CD3 [1] = molecular target: CD3 (UniProt P07766); assay: flow cytometry on Jurkat E6.1 cells, 1 nM, anti-HIS-PE
CD3 [2] = molecular target: CD3 (UniProt P07766); assay: flow cytometry on Jurkat E6.1 cells, 10 nM, anti-HIS-PE
CD3 [3] = molecular target: CD3 (UniProt P07766); assay: flow cytometry on Jurkat E6.1 cells, 100 nM, anti-HIS-PE
CD3 [4] = molecular target: CD3 (UniProt P07766); assay: flow cytometry on Jurkat E6.1 cells, 316 nM, anti-HIS-PE
CD3 [5] = molecular target: CD3 (UniProt P07766); assay: flow cytometry on Jurkat E6.1 cells, 0.32 nM, anti-HIS-PE
CD3 [6] = molecular target: CD3 (UniProt P07766); assay: flow cytometry on Jurkat E6.1 cells, 1000 nM, anti-HIS-PE
CD3 [7] = molecular target: CD3 (UniProt P07766); assay: flow cytometry on Jurkat E6.1 cells, 3.16 nM, anti-HIS-PE
CD3 [8] = molecular target: CD3 (UniProt P07766); assay: flow cytometry on Jurkat E6.1 cells, 31.6 nM, anti-HIS-PE
[9] = molecular target: T1, CD3 (CD3-positive Jurkat E6.1 cells) (Homo sapiens, UniProt P07766); assay: CD3 binding analysis by FACS on CD3-positive cells; conditions: Table 1
T1 construct: Jurkat E6.1 cells, which express CD3 on the cell surface; endogenous in cells; host or cells: Jurkat E6.1
Method: Both cell lines were cultured in RPMI 1640 supplemented with 1% pen/strep and 10% fetal bovine serum at a concentration of 2 × 10^5 to 1 × 10^6 cells/ml. Cells were washed in fresh medium before the experiment and 100,000 cells per well were seeded in a 96-wells plate (duplicate wells). The dilution series of 6 antibodies were made in phosphate-buffered saline (PBS). The antibodies were diluted 10 times in the cell suspension and incubated at 4° C. in the dark for 30 minutes. After incubation, the cells were washed twice in cold PBS / 0.5% BSA, and incubated with anti-HIS-PE (only for 200) or anti-lgG1-PE (for all other compounds) at 4° C., in the dark for 30 minutes. After the second incubation step, the cells were washed twice. 7AAD was added as a live-dead staining. Detection of the fluorescence in the Yellow-B channel (anti-IgG1-PE and anti-HIS-PE) and the Red-B channel (7AAD) was done with the Guava 5HT flow cytometer. Median fluorescence intensity in the Yellow-B channel (anti-IgG1-PE and anti-HIS-PE) in life cells was determined with Kaluza software.

CD3, sequence (P07766 23-207): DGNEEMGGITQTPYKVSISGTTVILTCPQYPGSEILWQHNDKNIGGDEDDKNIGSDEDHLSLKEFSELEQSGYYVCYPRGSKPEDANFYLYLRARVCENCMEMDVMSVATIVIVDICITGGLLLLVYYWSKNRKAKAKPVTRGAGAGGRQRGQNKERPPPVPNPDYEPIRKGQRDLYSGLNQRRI
T1 sequence (P07766 23-207): as above
T1 sequence (P09693 23-182 partner): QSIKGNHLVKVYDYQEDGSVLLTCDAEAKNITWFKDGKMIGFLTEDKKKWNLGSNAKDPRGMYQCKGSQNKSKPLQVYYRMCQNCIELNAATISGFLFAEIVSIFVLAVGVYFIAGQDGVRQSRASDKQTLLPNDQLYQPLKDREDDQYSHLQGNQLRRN
T1 sequence (P04234 22-171 partner): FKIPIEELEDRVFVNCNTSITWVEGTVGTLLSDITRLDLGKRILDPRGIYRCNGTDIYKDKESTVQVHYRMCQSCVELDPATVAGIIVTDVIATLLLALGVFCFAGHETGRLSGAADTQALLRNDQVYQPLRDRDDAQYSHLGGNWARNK
T1 sequence (P20963 22-164 partner): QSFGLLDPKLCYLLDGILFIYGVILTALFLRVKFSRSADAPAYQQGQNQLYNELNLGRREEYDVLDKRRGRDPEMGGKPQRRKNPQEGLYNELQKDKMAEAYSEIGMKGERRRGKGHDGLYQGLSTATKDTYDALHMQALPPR

Substance | median fluorescence intensity (CD3 [1]) | median fluorescence intensity (CD3 [2]) | median fluorescence intensity (CD3 [3]) | median fluorescence intensity (CD3 [4]) | median fluorescence intensity (CD3 [5]) | median fluorescence intensity (CD3 [6]) | median fluorescence intensity (CD3 [7]) | median fluorescence intensity (CD3 [8]) | concentration-dependent binding to the CD3 positive Jurkat E6.1 cell line [9]
Humanized OKT3 (hOKT3) with C-terminal sortase A recognition sequence (scFv) | 66.2 | 110 | 177 | 224 | 63.6 | 417 | 83.7 | 154 | –
Rituximab | – | – | – | – | – | – | – | – | not
